The values below are quoted from earlier work in article PMC6047922.

In the data set the target is ttRNH* Icore (Thermus thermophilus) (UniProt Q72IE1). Put plainly: analytical ultracentrifugation.

One may read the Kd as a measure of binding affinity in units of concentration. As for ttRNH* Icore (from UniProt Q72IE1), the Kd was 150 µM.
